Target: His6x-tagged hRNF145 RING protein (human) (UniProt Q96MT1)
Assay: SEC; Superdex 75 10/300 column calibrated with a set of standard proteins; elution volume corresponds to an apparent molecular mass of 39 kDa (predicted weight 18 kD)

stoichiometry N: 2
Substance: His6x-tagged hRNF145 RING protein (from UniProt Q96MT1-1 550-663) (domain or fragment)
